Data published in US10239923B2, “Specific amyloid beta binding peptides and the use of same for treating and diagnosing alzheimer's dementia” (Forschungszentrum Juelich GmbH, priority 2015, dated 2019).
Square brackets hold non-standard residues; d marks the D form.

Target: T1, Aβ1-42 monomers versus Aβ1-42 oligomers and fibrils (biotinylated, D-enantiomeric, immobilized) (Homo sapiens, UniProt P05067)
T1 construct: biotinylated, D-enantiomeric Aβ1-42 monomers
Assay: Monoclonal phage ELISA
Type: binding
Settings: individual phage clones; species immobilized at 320 nM; absorption at 450 nm normalized with 6E10 control; higher = more monomer-specific
Description: The specificity of the peptide results from the difference in % of the absorption values for the target molecule or the bait (for example A beta monomer) and the normalized absorption values for the competitors (for example A beta oligomers and fibrils) in the monoclonal phage ELISA.
The absorption values then constitute the affinity of individual phage clones for a particular immobilized A beta species. Here, the specificity is not dependent on the strength of the affinity, but instead only on the difference of the affinities between the species. […] The terms “competitors” and “target molecule” or “bait” are defined as specified below.
A method for normalizing the obtained values should therefore be performed. From all absorption values of the individual phage clone in the monoclonal phage ELISA, the values of the phage antibodies tested for cross-reaction can be used as background. This occurs in accordance with the previously immobilized species. The signal values of the phage antibody from the reaction trays with immobilized Aβ1-42 oligomers for this purpose can be removed from the signal values of the individual phage clone from the reaction trays with immobilized Aβ1-42 oligomers. A similar process is then carried out for Aβ1-42 monomers. In this way, a possible background signal of the phage antibody can initially be calculated from the signals of the individual phage clone. […] Only in this way is an equal interpretation of the results particularly in respect of the assessment of the specificity of the individual phage clone possible (see FIG. 2).
The affinity of individual phage clones with respect to the target molecule and the competitors was examined by means of ELISA. For this purpose, all three species were immobilized in biotinylated form on a polystyrene surface at streptavidin bound thereon. Since, during the panning rounds, oligomers and fibrils were added at the same time as competitors, these two species were immobilized in the monoclonal phage ELISA, likewise mixed. […] The streptavidin-coated microtiter plates were pre-washed as specified by the manufacturer. […] For immobilization, 100 μl were used per reaction tray and were incubated for 15 minutes at room temperature. After having washed the entire plate(s) twice with 150 μl 1×TBS per reaction tray, a blocking step with 150 μl 1×TBS/0.1% (v/v) Tween-20/1% (w/v) BSA was performed for an hour at room temperature. Three washing steps with 150 μl 1×TBS/0.1% (v/v) Tween-20 then followed per reaction tray. The amplified individual phage clones were mixed 1:1 with 1× TBS/1% (w/v) BSA. The antibody 6E10 was diluted 1:10,000 in 1×TBS/0.1% (v/v) Tween-20. […] After washing five times with 150 μl 1×TBS/0.1% (v/v) Tween-20 per reaction tray, 200 μl 1×TBS/0.1% (v/v) Tween-20 were placed in each reaction tray, and the plate(s) incubated for one hour at room temperature. The solutions were removed and replaced as follows: In all reaction trays that had been incubated previously with individual phage clone dilutions or the batch without phages, 100 μl of a phage antibody diluted 1:5,000 in 1×TBS/0.1% (v/v) Tween-20 were now added. The enzyme horseradish peroxidase (HRP) was coupled to this antibody and later served for the conversion of a substrate (TMB). […] At the same time, 100 μl of a second antibody diluted 1:1,000 in 1×TBS/0.1% (v/v) Tween-20 were now added to all reaction trays that had been previously incubated with the dilution of the 6E10 antibody, said second antibody being able to identify and bind to the 6E10 antibody originating from mice. This antibody is also HRP-coupled and thus allows a quantification of the binding of the first antibody to the immobilized target molecules or the plastics surface of the reaction tray. After one hour of incubation at room temperature, the plate(s) was/were washed 10 times with 150 μl 1×TBS/0.1% (v/v) Tween-20 per reaction tray. The signal was detected by adding the substrate 3,3′,5,5′-tetramethylbenzidine (TMB). […]

T1 sequence (P05067 672-713): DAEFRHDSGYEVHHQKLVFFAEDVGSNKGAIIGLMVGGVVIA

Sequence	Difference in signal strength between Aβ1-42 monomers (100%) and Aβ1-42 oligomers and fibrils [%]
HTWTHWFSWNVP (H-[dH][dT][dW][dT][dH][dW][dF][dS][dW][dN][dV][dP]-NH2; SMILES CC(C)[C@@H](NC(=O)[C@@H](CC(N)=O)NC(=O)[C@@H](Cc1c[nH]c2ccccc12)NC(=O)[C@@H](CO)NC(=O)[C@@H](Cc1ccccc1)NC(=O)[C@@H](Cc1c[nH]c2ccccc12)NC(=O)[C@@H](Cc1c[nH]cn1)NC(=O)[C@H](NC(=O)[C@@H](Cc1c[nH]c2ccccc12)NC(=O)[C@H](NC(=O)[C@H](N)Cc1c[nH]cn1)[C@H](C)O)[C@H](C)O)C(=O)N1CCC[C@@H]1C(N)=O) [Mosd10]	71.902
DRSKGDHRITQM (H-[dD][dR][dS][dK]G[dD][dH][dR][dI][dT][dQ][dM]-NH2; SMILES CC[C@@H](C)[C@@H](NC(=O)[C@@H](CCCNC(=N)N)NC(=O)[C@@H](Cc1c[nH]cn1)NC(=O)[C@@H](CC(=O)O)NC(=O)CNC(=O)[C@@H](CCCCN)NC(=O)[C@@H](CO)NC(=O)[C@@H](CCCNC(=N)N)NC(=O)[C@H](N)CC(=O)O)C(=O)N[C@@H](C(=O)N[C@H](CCC(N)=O)C(=O)N[C@H](CCSC)C(N)=O)[C@H](C)O) [Mosd18]	49.181
LSMNITTVHRWH (H-[dL][dS][dM][dN][dI][dT][dT][dV][dH][dR][dW][dH]-NH2; SMILES CC[C@@H](C)[C@@H](NC(=O)[C@@H](CC(N)=O)NC(=O)[C@@H](CCSC)NC(=O)[C@@H](CO)NC(=O)[C@H](N)CC(C)C)C(=O)N[C@@H](C(=O)N[C@@H](C(=O)N[C@@H](C(=O)N[C@H](Cc1c[nH]cn1)C(=O)N[C@H](CCCNC(=N)N)C(=O)N[C@H](Cc1c[nH]c2ccccc12)C(=O)N[C@H](Cc1c[nH]cn1)C(N)=O)C(C)C)[C@H](C)O)[C@H](C)O) [Mosd11]	57.671
VHWDFRQWWQPS (H-[dV][dH][dW][dD][dF][dR][dQ][dW][dW][dQ][dP][dS]-NH2; SMILES CC(C)[C@@H](N)C(=O)N[C@H](Cc1c[nH]cn1)C(=O)N[C@H](Cc1c[nH]c2ccccc12)C(=O)N[C@H](CC(=O)O)C(=O)N[C@H](Cc1ccccc1)C(=O)N[C@H](CCCNC(=N)N)C(=O)N[C@H](CCC(N)=O)C(=O)N[C@H](Cc1c[nH]c2ccccc12)C(=O)N[C@H](Cc1c[nH]c2ccccc12)C(=O)N[C@H](CCC(N)=O)C(=O)N1CCC[C@@H]1C(=O)N[C@H](CO)C(N)=O) [Mosd20]	45.718
HFWSWTSLSMTR (H-[dH][dF][dW][dS][dW][dT][dS][dL][dS][dM][dT][dR]-NH2; SMILES CSCC[C@@H](NC(=O)[C@@H](CO)NC(=O)[C@@H](CC(C)C)NC(=O)[C@@H](CO)NC(=O)[C@H](NC(=O)[C@@H](Cc1c[nH]c2ccccc12)NC(=O)[C@@H](CO)NC(=O)[C@@H](Cc1c[nH]c2ccccc12)NC(=O)[C@@H](Cc1ccccc1)NC(=O)[C@H](N)Cc1c[nH]cn1)[C@H](C)O)C(=O)N[C@@H](C(=O)N[C@H](CCCNC(=N)N)C(N)=O)[C@H](C)O) [Mosd8]	68.616
HLSWYWEKYLTS (H-[dH][dL][dS][dW][dY][dW][dE][dK][dY][dL][dT][dS]-NH2; SMILES CC(C)C[C@@H](NC(=O)[C@H](N)Cc1c[nH]cn1)C(=O)N[C@H](CO)C(=O)N[C@H](Cc1c[nH]c2ccccc12)C(=O)N[C@H](Cc1ccc(O)cc1)C(=O)N[C@H](Cc1c[nH]c2ccccc12)C(=O)N[C@H](CCC(=O)O)C(=O)N[C@H](CCCCN)C(=O)N[C@H](Cc1ccc(O)cc1)C(=O)N[C@H](CC(C)C)C(=O)N[C@@H](C(=O)N[C@H](CO)C(N)=O)[C@H](C)O) [Mosd9]	68.016
FSHSHHTWFTWN (H-[dF][dS][dH][dS][dH][dH][dT][dW][dF][dT][dW][dN]-NH2; SMILES C[C@H](O)[C@@H](NC(=O)[C@@H](Cc1ccccc1)NC(=O)[C@@H](Cc1c[nH]c2ccccc12)NC(=O)[C@H](NC(=O)[C@@H](Cc1c[nH]cn1)NC(=O)[C@@H](Cc1c[nH]cn1)NC(=O)[C@@H](CO)NC(=O)[C@@H](Cc1c[nH]cn1)NC(=O)[C@@H](CO)NC(=O)[C@H](N)Cc1ccccc1)[C@H](C)O)C(=O)N[C@H](Cc1c[nH]c2ccccc12)C(=O)N[C@H](CC(N)=O)C(N)=O) [Mosd7]	57.960
FSWSMVMPWPTA (H-[dF][dS][dW][dS][dM][dV][dM][dP][dW][dP][dT][dA]-NH2; SMILES CSCC[C@@H](NC(=O)[C@@H](CO)NC(=O)[C@@H](Cc1c[nH]c2ccccc12)NC(=O)[C@@H](CO)NC(=O)[C@H](N)Cc1ccccc1)C(=O)N[C@@H](C(=O)N[C@H](CCSC)C(=O)N1CCC[C@@H]1C(=O)N[C@H](Cc1c[nH]c2ccccc12)C(=O)N1CCC[C@@H]1C(=O)N[C@@H](C(=O)N[C@H](C)C(N)=O)[C@H](C)O)C(C)C) [Mosd21]	46.030
DLRFSSLWKLSH (H-[dD][dL][dR][dF][dS][dS][dL][dW][dK][dL][dS][dH]-NH2; SMILES CC(C)C[C@@H](NC(=O)[C@H](N)CC(=O)O)C(=O)N[C@H](CCCNC(=N)N)C(=O)N[C@H](Cc1ccccc1)C(=O)N[C@H](CO)C(=O)N[C@H](CO)C(=O)N[C@H](CC(C)C)C(=O)N[C@H](Cc1c[nH]c2ccccc12)C(=O)N[C@H](CCCCN)C(=O)N[C@H](CC(C)C)C(=O)N[C@H](CO)C(=O)N[C@H](Cc1c[nH]cn1)C(N)=O) [Mosd19]	50.299
YSFHFEMNMGNY (H-[dY][dS][dF][dH][dF][dE][dM][dN][dM]G[dN][dY]-NH2; SMILES CSCC[C@@H](NC(=O)[C@@H](CC(N)=O)NC(=O)[C@@H](CCSC)NC(=O)[C@@H](CCC(=O)O)NC(=O)[C@@H](Cc1ccccc1)NC(=O)[C@@H](Cc1c[nH]cn1)NC(=O)[C@@H](Cc1ccccc1)NC(=O)[C@@H](CO)NC(=O)[C@H](N)Cc1ccc(O)cc1)C(=O)NCC(=O)N[C@H](CC(N)=O)C(=O)N[C@H](Cc1ccc(O)cc1)C(N)=O) [Mosd13]	57.246
EHWDFGQWWQQS (H-[dE][dH][dW][dD][dF]G[dQ][dW][dW][dQ][dQ][dS]-NH2; SMILES NC(=O)CC[C@@H](NC(=O)CNC(=O)[C@@H](Cc1ccccc1)NC(=O)[C@@H](CC(=O)O)NC(=O)[C@@H](Cc1c[nH]c2ccccc12)NC(=O)[C@@H](Cc1c[nH]cn1)NC(=O)[C@H](N)CCC(=O)O)C(=O)N[C@H](Cc1c[nH]c2ccccc12)C(=O)N[C@H](Cc1c[nH]c2ccccc12)C(=O)N[C@H](CCC(N)=O)C(=O)N[C@H](CCC(N)=O)C(=O)N[C@H](CO)C(N)=O) [Mosd14]	56.526
ERSQWGHRDPQS (H-[dE][dR][dS][dQ][dW]G[dH][dR][dD][dP][dQ][dS]-NH2; SMILES N=C(N)NCCC[C@@H](NC(=O)[C@H](N)CCC(=O)O)C(=O)N[C@H](CO)C(=O)N[C@H](CCC(N)=O)C(=O)N[C@H](Cc1c[nH]c2ccccc12)C(=O)NCC(=O)N[C@H](Cc1c[nH]cn1)C(=O)N[C@H](CCCNC(=N)N)C(=O)N[C@H](CC(=O)O)C(=O)N1CCC[C@@H]1C(=O)N[C@H](CCC(N)=O)C(=O)N[C@H](CO)C(N)=O) [Mosd17]	54.492
STLHFYTAFLNK (H-[dS][dT][dL][dH][dF][dY][dT][dA][dF][dL][dN][dK]-NH2; SMILES CC(C)C[C@@H](NC(=O)[C@@H](Cc1ccccc1)NC(=O)[C@@H](C)NC(=O)[C@H](NC(=O)[C@@H](Cc1ccc(O)cc1)NC(=O)[C@@H](Cc1ccccc1)NC(=O)[C@@H](Cc1c[nH]cn1)NC(=O)[C@@H](CC(C)C)NC(=O)[C@H](NC(=O)[C@H](N)CO)[C@H](C)O)[C@H](C)O)C(=O)N[C@H](CC(N)=O)C(=O)N[C@H](CCCCN)C(N)=O) [Mosd6]	67.981
